Consider 4 molecules from PMC10702442, “Arabidopsis thaliana Phytocystatin 6 Forms Functional Oligomer and Amyloid Fibril States” (Biochemistry, 2023).

In general, stoichiometry N refers to the number of molecules, sites or subunits per partner or assembly.

The target of data set [1] is AtCYT6-CTD_(long), the C-terminal domain containing the interdomain linker at its N-terminus (Arabidopsis thaliana). Briefly: SEC; Superdex 75, 500 uL of protein at up to 2 mg/mL, 20 mM Tris pH 7.5, 50 mM NaCl, nonreducing, room temperature. (SEC sorts molecules by how far they enter the pores of the column.)
Data set [2] concerns the molecule itself. The description is as above.
The target of data set [3] is T1, Papain from Carica papaya (Carica papaya, UniProt P00784 134-345).
T1 sequence (looked up): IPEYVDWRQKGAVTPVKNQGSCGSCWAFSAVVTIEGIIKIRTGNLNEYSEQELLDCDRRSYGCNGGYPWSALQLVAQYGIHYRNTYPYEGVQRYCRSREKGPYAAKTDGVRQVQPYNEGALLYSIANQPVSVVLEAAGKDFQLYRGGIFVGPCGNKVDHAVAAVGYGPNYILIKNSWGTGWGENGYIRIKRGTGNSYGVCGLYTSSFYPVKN
Briefly: cell-based or functional assay.

Data set [4] concerns the molecule itself. Kind of data set: SEC; Superdex 200, 500 uL of AtCYT6 at 2 mg/mL, 20 mM Tris pH 7.5, 50 mM NaCl, without or with 2 mM DTT, room temperature.
Data set [5] deals with the molecule itself. Briefly: cross-linking; 0.175% (w/v) glutaraldehyde, protein at 0.3 mg/mL in 20 mM citric acid pH 5.5, 100 mM NaCl, room temperature, 1, 5 and 10 min, read by SDS-PAGE.

As for “AtCYT6-CTD_(long), the C-terminal domain containing the interdomain linker at its N-terminus (domain or fragment)”, the stoichiometry N in data set [1] worked out at 2.

B1: AtCYT6-NTD, the isolated N-terminal cystatin domain of AtCYT6 (domain or fragment, Arabidopsis thaliana, UniProt Q8H0X6 35-127, looked up)
chain: ALVGGVGDVPANQNSGEVESLARFAVDEHNKKENALLEFARVVKAKEQVVAGTLHHLTLEILEAGQKKLYEAKVWVKPWLNFKELQEFKPASD
notes: N-terminal cystatin domain of cystatin 6 of Arabidopsis thaliana; no cysteine; The limits Ala35–Asp127 are printed for the AlphaFold model named AtCYT6-NTD, on Uniprot ID Q8H0X6; pET-28a vector; also called N-terminal domain; source: E. coli BL21 (DE3), purified (Ni2+ IMAC, gel filtration)
As to B1, in data set [2], the “stoichiometry N” value turned out to be 2. Also, the “IC50 of papain inhibition in a fluorescence substrate assay: dimer peak fraction of AtCYT6-NTD against the monomer peak fraction” value in data set [3] worked out at 10 fold.

B2: Arabidopsis thaliana phytocystatin 6 (AtCYT6), full-length AtCYT6 lacking the N-terminal signal peptide (natural protein, UniProt Q8H0X6 35-234, looked up)
chain: ALVGGVGDVPANQNSGEVESLARFAVDEHNKKENALLEFARVVKAKEQVVAGTLHHLTLEILEAGQKKLYEAKVWVKPWLNFKELQEFKPASDAPAITSSDLGCKQGEHESGWREVPGDDPEVKHVAEQAVKTIQQRSNSLFPYELLEVVHAKAEVTGEAAKYNMLLKLKRGEKEEKFKVEVHKNHEGALHLNHAEQHHD
notes: Cystatin 6 (phytocystatin 6) of Arabidopsis thaliana without the N-terminal signal peptide (M1-M34); both cystatin domains and the interdomain linker with Cys138; pET-15b vector; In the functional rows on fibrils this protein stood as washed amyloid fibrils (heated at 80 °C, pH 3.0); also called cystatin 6 from A. thaliana; source: E. coli BL21 (DE3), purified (Ni2+ IMAC, gel filtration)
For B2, in data set [4], the binding result was “binds”.

B3: AtCYT6, alkylated before cross-linking (natural protein, Arabidopsis thaliana, UniProt Q8H0X6 35-234, looked up)
chain: B2 chain
modifications: alkylated to prevent disulfide-mediated dimerization via Cys138
notes: As m1: cystatin 6 of Arabidopsis thaliana without the N-terminal signal peptide (M1-M34); Ala35 to Asp234 according to Uniprot ID Q8H0X6; source: E. coli BL21 (DE3), purified (Ni2+ IMAC, gel filtration), then alkylated
For the molecule B3, the “stoichiometry N” value in data set [5] stood at 2.
